From paper PMC4414297, “An epitope tag alters phosphoglycerate dehydrogenase structure and impairs ability to support cell proliferation” (Cancer & Metabolism, 2015) come the findings set out here.

The data set deals with the molecule itself. As to the kind of experiment: negative-stain electron microscopy; 12 ng/ul His-PHGDH or 15 ng/ul untagged PHGDH with 0.5 mM NADH, 2% uranyl acetate; reference-free alignment, class averages, particle areas compared.

B1: recombinant untagged PHGDH (D-3-phosphoglycerate dehydrogenase) (enzyme, human, UniProt O43175 1-533, looked up)
chain: MAFANLRKVLISDSLDPCCRKILQDGGLQVVEKQNLSKEELIAELQDCEGLIVRSATKVTADVINAAEKLQVVGRAGTGVDNVDLEAATRKGILVMNTPNGNSLSAAELTCGMIMCLARQIPQATASMKDGKWERKKFMGTELNGKTLGILGLGRIGREVATRMQSFGMKTIGYDPIISPEVSASFGVQQLPLEEIWPLCDFITVHTPLLPSTTGLLNDNTFAQCKKGVRVVNCARGGIVDEGALLRALQSGQCAGAALDVFTEEPPRDRALVDHENVISCPHLGASTKEAQSRCGEEIAVQFVDMVKGKSLTGVVNAQALTSAFSPHTKPWIGLAEALGTLMRAWAGSPKGTIQVITQGTSLKNAGNCLSPAVIVGLLKEASKQADVNLVNAKLLVKEAGLNVTTSHSPAAPGEQGFGECLLAVALAGAPYQAVGLVQGTTPVLQGLNGAVFRPEVPLRRDLPLLLFRTQTSDPAMLPTMIGLLAEAGVRLLSYQTSLVSDGETWHVMGISSLLPSLEAWKQHVTEAFQFHF
notes: D-3-phosphoglycerate dehydrogenase (PHGDH), human, expressed from pET28a PHGDH without a tag; Oligomer size is left open (dimer, trimer, or tetramer); also called rPHGDH; source: E. coli BL21, purified (Cibacron Blue F3GA, MonoQ, Sephacryl S-200)
B1: the binding result is on record as “binds”.
